Legend:
[1] = target: human full-length EGF receptor (human) (UniProt P00533)
EGFRvIII (human) [2] = target: EGFRvIII (human) (UniProt P00533)
[3] = target: human full-length EGF receptor (human) (UniProt P00533); remark: listed apart in the source
[4] = target: human full-length EGF receptor (human) (UniProt P00533); remark: listed apart in the source
EGFRvIII (human) [5] = target: EGFRvIII (human) (UniProt P00533); remark: listed apart in the source

| Substance | competition of TGFα-ETA (100 ng/ml) cytotoxicity by 10 µg/ml scFv, 40 h; MDA-MB468 cells (also A431 and SKBR3) (% cell killing) [1] | IC50 of cell killing, DH-EΔ801-5 cells, 40 h (EGFRvIII (human) [2]) [µg/mL] | IC50 of cell killing, SKBR3 cells, 40 h [3] [µg/mL] | IC50 of cell killing, DH-EGFR-E cells, 40 h [4] [µg/mL] | IC50 of cell killing, DH-EΔ801-P cells, 40 h (EGFRvIII (human) [5]) [µg/mL] |
| --- | --- | --- | --- | --- | --- |
| scFv(225) | 63 | – | – | – | – |
| TGFα-ETA (from UniProt P01135) | – | > 1 | 0.09 | 0.042 | 0.7 |

— patent US5942602
